Reference: paper PMC7337490, “Molecular basis of MKLP2-dependent Aurora B transport from chromatin to the anaphase central spindle”

Experiments:
Conditions in all cases: protein: recombinant;recombinant;recombinant; tags: N-terminal His (tag cleavage stated for complex);;His6-GST, cleaved by HRV 3C; copies: 1;1;1; label: Alexa 488 on forward strand; blunt
[1] = molecular target: survivin;borealin 10-109;INCENP 1-80 RRKKRR (CPI80RRKKRR) (human;human;human, UniProt O15392;Q53HL2;Q9NQS7 1-142;10-109;1-80, ||R65A;R66A;K67A;K68A;R69A;R70A); test: MST; up to 200 uM; 100 mM NaCl, 20 mM Tris-HCl pH 7.4, 1 mM DTT, 2 h on ice; MST 0.04 uM duplex, 0.1-200 uM protein; EMSA 0.15 pmol plasmid in 20 ul, 0.8% agarose
Chain of survivin;borealin 10-109;INCENP 1-80 RRKKRR (CPI80RRKKRR) (O15392 whole entry, chain 1 of 3): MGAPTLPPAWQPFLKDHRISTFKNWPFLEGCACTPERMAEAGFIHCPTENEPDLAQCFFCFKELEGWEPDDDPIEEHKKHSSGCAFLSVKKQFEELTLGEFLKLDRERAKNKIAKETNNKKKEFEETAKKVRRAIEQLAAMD
Chain of survivin;borealin 10-109;INCENP 1-80 RRKKRR (CPI80RRKKRR) (Q53HL2 10-109, stated change not applied, chain 2 of 3): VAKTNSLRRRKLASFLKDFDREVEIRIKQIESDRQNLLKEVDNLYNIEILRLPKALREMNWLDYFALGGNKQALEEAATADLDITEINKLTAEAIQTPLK
Chain of survivin;borealin 10-109;INCENP 1-80 RRKKRR (CPI80RRKKRR) (Q9NQS7 1-80 R65A/R66A/K67A/K68A/R69A/R70A, chain 3 of 3): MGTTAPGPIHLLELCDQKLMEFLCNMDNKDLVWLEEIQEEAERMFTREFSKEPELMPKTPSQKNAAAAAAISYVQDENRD

[2] = molecular target: survivin;borealin 10-109;INCENP 1-58 (CPI58) (human;human;human, UniProt O15392;Q53HL2;Q9NQS7 1-142;10-109;1-58, ||); test: as above
Chain of survivin;borealin 10-109;INCENP 1-58 (CPI58) (O15392 whole entry, chain 1 of 3): as the sequence (O15392 whole entry, chain 1 of 3) above
Chain of survivin;borealin 10-109;INCENP 1-58 (CPI58) (Q53HL2 10-109, chain 2 of 3): as the sequence (Q53HL2 10-109, stated change not applied, chain 2 of 3) above
Chain of survivin;borealin 10-109;INCENP 1-58 (CPI58) (Q9NQS7 1-58, chain 3 of 3): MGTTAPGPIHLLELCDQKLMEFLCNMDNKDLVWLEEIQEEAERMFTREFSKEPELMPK

[3] = molecular target: survivin;borealin 10-109;INCENP 1-80 T59E (CPI80T59E) (human;human;human, UniProt O15392;Q53HL2;Q9NQS7 1-142;10-109;1-80, ||T59E); test: MST; Kd not calculable per legend; 100 mM NaCl, 20 mM Tris-HCl pH 7.4, 1 mM DTT, 2 h on ice; MST 0.04 uM duplex, 0.1-200 uM protein; EMSA 0.15 pmol plasmid in 20 ul, 0.8% agarose
Chain of survivin;borealin 10-109;INCENP 1-80 T59E (CPI80T59E) (O15392 whole entry, chain 1 of 3): as the sequence (O15392 whole entry, chain 1 of 3) above
Chain of survivin;borealin 10-109;INCENP 1-80 T59E (CPI80T59E) (Q53HL2 10-109, chain 2 of 3): as the sequence (Q53HL2 10-109, stated change not applied, chain 2 of 3) above
Chain of survivin;borealin 10-109;INCENP 1-80 T59E (CPI80T59E) (Q9NQS7 1-80 T59E, chain 3 of 3): as the sequence (Q9NQS7 1-80 R65A/R66A/K67A/K68A/R69A/R70A, chain 3 of 3) above, with T59E, A65R, A66R, A67K, A68K, A69R, A70R counted along it

[4] = molecular target: survivin;borealin 10-109;INCENP 1-80 (CPI80) (human;human;human, UniProt O15392;Q53HL2;Q9NQS7 1-142;10-109;1-80, ||); test: MST; 100 mM NaCl, 20 mM Tris-HCl pH 7.4, 1 mM DTT, 2 h on ice; MST 0.04 uM duplex, 0.1-200 uM protein; EMSA 0.15 pmol plasmid in 20 ul, 0.8% agarose
Chain of survivin;borealin 10-109;INCENP 1-80 (CPI80) (O15392 whole entry, chain 1 of 3): as the sequence (O15392 whole entry, chain 1 of 3) above
Chain of survivin;borealin 10-109;INCENP 1-80 (CPI80) (Q53HL2 10-109, chain 2 of 3): as the sequence (Q53HL2 10-109, stated change not applied, chain 2 of 3) above
Chain of survivin;borealin 10-109;INCENP 1-80 (CPI80) (Q9NQS7 1-80, chain 3 of 3): as the sequence (Q9NQS7 1-80 R65A/R66A/K67A/K68A/R69A/R70A, chain 3 of 3) above, with A65R, A66R, A67K, A68K, A69R, A70R counted along it

B1: centromeric alpha-satellite consensus 40 bp (dsDNA)
DNA 1: ATTCAACTCACAGAGTTGAACCTTCCTTTTCATAGAGCAG
DNA 2: CTGCTCTATGAAAAGGAAGGTTCAACTCTGTGAGTTGAAT
- binding result [1]: no binding
- binding result [2]: no binding
- binding signal [3]: ~2 fold lower affinity than CPI80
- Kd [4]: 23.6 ± 1.6 µM

B2: non-alpha-satellite 40 bp (dsDNA)
DNA 1: ATTCCATGGCACCGTCAAGGCTGAGAACGGGAAGCTTGTC
DNA 2: GACAAGCTTCCCGTTCTCAGCCTTGACGGTGCCATGGAAT
- binding result [1]: no binding
- binding result [2]: no binding
- binding signal [3]: ~2 fold lower affinity than CPI80
- Kd [4]: 29.7 ± 1.6 µM
